The chains are these.
B1: Yali0C08074: putative Y. lipolytica FDH gene; promoter region SEQ ID NO: 5 (1 Kb) and 21 (1.5 Kb) (nucleic acid, listed as Yarrowia lipolytica)
DNA: ATGAAGGTCCTTCTTGTTCTTTACGATGCTGGCTCCCATGCCAAGGATGAGCCCAAGCTGCTTGGATGCACCGAGAACGAGCTCGGTATCAGAGACTGGCTCGAGTCTCAGGGACATACCCTTGTAACTACGTCTTCCAAGGACGGTGCCGACTCTGTCCTCGACAAGGAGATTGTCGATGCCGATGTAGTCATCACCACCCCCTTTCATCCTGGATACATCAACAAGGAGCGAATCGACAAAGCCAAGAAGCTCAAGATTTGCATCACTGCTGGTGTCGGCTCTGACCACGTCGATCTCGACGCTGCCAACGCCCGAGATATTGCTGTTCTCGAAGTCACCGGCTCCAATGTCCAGTCTGTTGCCGAGCACGTTATCATGACCATGTTGGTCCTGGTGCGAAACTTTGTCCCTGCTCACGAGCAGATCATCTCTGGCGGTTGGGACGTTGCTGCTGTTGCCAAGGACTCATACGATCTCGAGGGTAAGGTCATCGGCACCGTTGGAGGAGGCCGAATTGGCCAGCGAGTGCTCAAGCGATGCAAGCCCTTCGACCCCATGGAGATGCTCTACTACGACTATCAGGCCATGCCAGCTGACGTTGAGAAGGAGATTGGATGTCGTCGAGTCGAGTCTCTCGAGGAGATGCTCTCTCTTTGTGACGTGGTCACCATCAACTGCCCTCTGCACGCTTCCACCAAGGGCCTGTTCAACAAAGAGCTCATCTCGCACATGAAGGATGGTGCCTGGCTCGTTAACACCGCTCGAGGAGCCATTTGTGTCACCGAGGACATTGTCGAGGCTCTCGAGTCCGGTAAGATCCGAGGTTACGGCGGAGACGTTTGGTTCCCCCAGCCTGCCCCTAAGGACCACCCCTGGAGAACCATGCGAAACAAGTACGGGGGAGGAAACGCCATGACTCCTCATATCTCCGGAACTTCCATCGACGCCCAGGGCCGATATGCCGAGGGCACCAAGAAGATCCTTGAGGTTTTCTTTTCTGGAAAGCAGGATTATCGACCCCAGGACATTATCTGCATCAATGGTCACTACGGCACAAAAGCTTACGGAGATGACAAGGAGCACAAGGAGCACCAGCTCAAGTAAATATATATAGCTAGAAACATATCTCGTTGTTGCTT
modifications: YALI0C08074g
B2: Yali0A21353: putative Y. lipolytica FDH gene; promoter region SEQ ID NO: 2 (1 Kb) and 18 (1.5 Kb) (nucleic acid, listed as Yarrowia lipolytica)
DNA: ATGAAGGTCCTTCTTATTCTCTACGATGCCGGCTCCCACGCCAAGGACGAGCCCAAGCTGCTTGGATGCACCGAGAACGAGCTTGGTATTCGAGACTGGCTCGAGTCGCAGGGCCACACTCTCGTCACCACCTCTTCCAAGGACGGTGCCGACTCTGTGCTTGACAAGGAGATTGTTGACGCTGATGTAGTCATCACCACCCCGTTCCACCCCGGCTACATCAACAAGGAGCGAATTGACAAGGCCAAGAAGCTCAAGATCTGCATCACCGCCGGTGTCGGCTCCGACCACGTGGACCTCGATGCTGCCAACGCCCGAAACATTGCCGTTCTCGAGGTCACCGGCTCGAACGTCCAGTCCGTCGCTGAGCATGTTGTCATGACCATGCTGGTGCTGGTCCGAAACTTTGTCCCTGCCCACGAGCAGATTATTTCTGGCGGCTGGGACGTTGCTGCGGTTGCCAAGGACTCTTACGATCTCGAGGGCAAGGTCATCGGTACCGTTGGAGGCGGTCGAATCGGCCAGCGAGTGCTCAAGCGATGCAAGCCCTTTGACCCCATGGAGATGCTCTACTACGACTACCAGGCTATGCCAGCTGATGTGGAGAATGAGATTGGATGCCGACGAGTCGAGTCTCTGGAGGAGATGCTCTCTCTCTGTGACGTTGTAACCATCAACTGTCCTCTCCATGCCTCCACCAAGGGTCTCTTCAACAAGGAGCTCATTTCCCACATGAAGGACGGCGCTTGGCTCGTCAACACTGCTCGAGGAGCCATCTGCGTCACCGAGGACATTGTCGACGCTCTCGAGTCCGGCAAGATCCGAGGCTACGGTGGTGACGTCTGGTTCCCCCAGCCTGCCCCCAAGGACCACCCCTGGAGAACCATGCGAAACAAGTACGGCGGTGGAAACGCCATGACTCCCCATATCTCCGGTACTTCCATCGACGCCCAGGGCCGATACGCTGAGGGTACCAAGAAGATTCTTGAGGTCTTTTTCTCTGGCAAGCAGGATTACCGCCCCCAGGACATTATCTGCATCAACGGTCACTACGGTACCAAGGCTTACGGTGACGACAAGGAGCACAAGGCCCACGTTTCCAAGTAGCTGTTTAACTTATATAAGCAATTGACTGGATTTGATAACGA
modifications: YALI0A12353g
B3: Yali0F15983: putative Y. lipolytica FDH gene; promoter region SEQ ID NO: 3 (1 Kb) and 19 (1.5 Kb) (nucleic acid, listed as Yarrowia lipolytica)
DNA: ATGAAGGTCCTTCTTATTCTCTACTCTGCCGGTTCTCACGCCGTTGACGAGCCCAAGCTACTCGGTTGCACTGAGAACGAGCTCGGTCTCCGAAAGTGGCTCGAGTCCCGGGGCCACACGCTTGTGACCACCTCTTCAAAGGAGGGAGCCGACTCTGTGCTCGACAAGGAGATTGTCGATGCCGACATTGTCATCACTACTCCCTTCCACCCCGGTTACATCACCCGAGAGCGAATCGCCAAGGCCAAGAACCTCAAAATTTGCATCACTGCCGGTGTTGGTTCGGACCACGTCGATCTTGATGCTGCCAACGAGCGAGATATTGCCGTTCTCGAGGTCACTGGCTCCAACGTGCAGTCTGTGGCTGAGCACGTTGTCATGACCATGCTGGTCCTGGTCCGAAACTTTGTGCCTGCCCACGAGCAGGTCATGGCTGGTGGCTGGGACGTTGCTGCTGTCGCCAAGGACTCCTACGACATTGAGGGAAAGGTCATTGGTACTGTGGGAGGTGGCCGAATTGGTCAGCGAGTCCTAAAGCGAGTTGCTCCCTTCAACCCTAAGGAGATGCTCTACTACGACTACCAGGGTCTGTCTGCTGAGACCGAGAAGGAGCTGAACTGCCGACGAGTCGAGAAGCTCGAGGATATGCTTGCCCAGTGTGATATCGTCACCATCAACTGTCCCCTCCACGAGTCCACCAAGGGTCTCTTCAACAAGGAGATGCTCTCTCACATGAAGAAAGGTGCCTGGCTTGTCAACACCGCTCGAGGAGCCATCTGTGTCAAGGAAGACGTTGCTGAGGCTCTCAAGAACGGCCAGCTGCGAGGCTACGGAGGTGACGTCTGGTTCCCCCAGCCTGCTCCCGCTGACCACCCCTGGAGATCCATGCGAAACAAGTACGGAGCTGGAAACGCCATGACCCCCCATATCTCCGGTACTTGCATCGATGCCCAGGTTCGGTACGCCCAGGGAACCAAGAACATTCTCGACATGTTCTTCTCCGGTAAGCAGGACTACCGACCCCAGGACATCATCTGCATCAACGGTCACTACGGAACCAAGGCCTACGGTGATGACAAGGAGCATGCTAAAAAGTAGGCTGGACGTCGAAATAAACACATTGTTCATCTCTGGGTAGCCCAATAGTAAATAGGTAAGCTGTGATCATTA
modifications: YALI0F15983g

Consider three molecules from patent publication US20230332166A1, “FORMATE-INDUCIBLE PROMOTERS AND METHODS OF USE THEREOF” (Imperial College Innovations Ltd, priority 2020, published 2023).

The test system of the data set is Y. lipolytica JMY2900. Description: qPCR of putative FDH gene transcription upon induction with sodium formate. It is filed as cell-based, Yarrowia lipolytica. Particulars: YNB with 0.5% sodium formate, 6 h, 28° C., vs absence of formate; qPCR normalised to actin. As to the method:
FIG. 3: Transcription levels of the FDH genes of Yarrowia lipolytica W29 measured by qPCR, normalised to actin (ACT1) expression. Yarrowia lipolytica was grown in YNB supplemented with 1% glucose and 0.5% yeast extract at 15 h at 28° C., before being washed and transferred into YNB with 0.5% of sodium formate for induction and grown for 6 h.
The inducibility of the putative FDH genes with formate was then tested by qPCR. YALI0E14256g1_1 and the nine putative FDH with the highest % identity to YALI0E14256g1_1 were selected for testing. Y. lipolytica JMY2900 was cultured in YNB media supplemented with 1% glucose and 0.5% yeast extract for 15 h at 28° C. Cells were washed with distilled water and cultured in fresh liquid YNB media supplemented with 0.5% sodium formate at 28° C. with agitation at 160 rpm, before being harvested at 6 h post-inoculated. Cells were frozen in liquid nitrogen and stored at −80° C. RNA was subsequently extracted using the RNeasy Mini Kit (Qiagen), and 2 μg was treated with DNAse (Ambion; Life Science Technologies, Saint-Aubain, France). cDNA was synthesised using the Maxima First Strand cDNA synthesis kit (Thermo Fischer Scientific, Villebon sur Yvette, France). qPCR was then performed using the SYBRgreen mastermix (Thermo Fischer Scientific) with gene-specific primers designed using Primer3 software. Relative expression levels were calculated using ΔCT and ΔΔCT methods. Expression levels were normalised to actin.
On the technique in general: Quantitative PCR measures a nucleic acid by following its amplification.
With B1, the “Fold increase on induction (fold change expression of putative FDH genes upon induction with sodium formate)” value turned out to be 3.7 fold.

With B2, the “Fold increase on induction (fold change expression of putative FDH genes upon induction with sodium formate)” value is on record as 7.9 fold.

In the case of B3, the “Fold increase on induction (fold change expression of putative FDH genes upon induction with sodium formate)” value is reported as 4.2 fold.
